{
  "source": "patent US6361968",
  "key": {"P05412": {"molecular_target": "P05412", "assay": "thermal melt, homodimer (FIG. 4)"}, "[1]": {"assay": "CD thermal melts, homodimer"}, "P16220": {"molecular_target": "P16220", "assay": "thermal melt, homodimerization (FIG. 3)"}},
  "data": [
    {"protein": "c-Jun (unmodified) (protein) PLSPIDMESQERIKAERKRMRNRIAASKCRKRKLERIARLEEKVKTLKAQNSELASTANMLREQVAQLKQKVMNHVNSGCQLMLTQQLQTF", "values": [
      {"measurement": "Tm", "setting": "P05412", "value": "homodimerization of unmodified c-Jun had a melting temperature of 29.4 °C"}
    ]},
    {"protein": "C/EBP bZIP domain (GCN4-C/EBP chimeric protein) (protein) SEYQPSLFALNPMGFSPLDGSKSTNENVSASTSTAKPMVGQLIFDKFIKTEEDPGKAKKSVDKNSNEYRVRRERNNIAVRKSRDKAKQRNVETQQKVLELTSDNDRLRKRVEQLSRELDTLRGIFRQLPESSLVKAMGNCA", "values": [
      {"measurement": "Tm decrease in 50 mM KCl against 150 mM KCl", "setting": "[1]", "value": "less stable by 4 °C in 50 mM KCl compared with 150 mM KCl"}
    ]},
    {"protein": "CREB (unmodified) (protein) MASSPALPTQPAEEAARKREVRLMKNREAARECRRKKKEYVKCLENRVAVLENQNKTLIEELKALKDLYCHKSD", "values": [
      {"measurement": "Tm", "setting": "P16220", "value": "Tm=47 °C"}
    ]}
  ]
}
